Experimental data from a protein production outcome set (Wang et al. 2014).

Test: label from the status in PepcDB records

Question: For “MTHVTLRSEFETLIDPYAPVAQVGTGFDFTEGPIWHPIDHYLLFSDMPGDVRRRWDARRGMAEVKRPSNKCNGMTYDAELNLIVCEHATSSLIRERPDGRREVLASHFGGQELNSPNDVCVHSSGAIYFSDPWYGRMPVYGVERPRQLGFQGVYRVMPGGEPKLVVDRNLFDQPNGLCFSPDERLLYVNDTVQALIRVFDVNADGTLSNARVFASSIKSELEPGLPDGMKCDQHGNVWVTAPGGVWVYSPRGELLGKVRVPELVANLAWGGPDFRTLYLTSTHSVYAIPTRVGPRHEPYMSGRRGGAGASAGPAAAAPILTDGEMRLDPQRCAMIIQDLQNDVIMDGGAFDGSGAPAHAKQQHVVENVRRLAEAARARGVAIIHVWFVVEPGAPGVTLNAPLFEGLVDSKAMVRGSWGAAPVSGLEPRPGDFVVEKMRMSAWEGTRLETILKATGRDMIINTGAWTNMSVEHTARTGADKGYFMIVPEDCCSTMNADWHSASINFAMQNVAIVTRADAVIRALGLEHHHHHH”, which protein production is on record?
Answer: failed

Question: Which protein production does the source give for “MTIAVTGSIATDHLMRFPGRFSEQLLPEHLHKVSLSFLVDDLVMHRGGVAGNMAFAIGVLGGEVALVGAAGADFADYRDWLKARGVNCDHVLISETAHTARFTCTTDVDMAQIASFYPGAMSEARNIKLADVVSAIGKPELVIIGANDPEAMFLHTEECRKLGLAFAADPSQQLARLSGEEIRRLVNGAAYLFTNDYEWDLLLSKTGWSEADVMAQIDLRVTTLGPKGVDLVEPDGTTIHVGVVPETSQTDPTGVGDAFRAGFLTGRSAGLGLERSAQLGSLVAVLVLESTGTQEWQWDYEAAASRLAGAYGEHAAAEIVAVLA” here?
Answer: not failed

Question: With “MTIIKYIKFVVIIVIVTIVFSCSKNEAGNSEYDPSLPISLTDFFPIQGGMATRMVIEGANFGTDLSQIKVFFNQKEASILNVKNSIIYLLVPKLPGNDCIVTVKVGNQEARFTRNFQYIENYSVTTIAGQPGTNLFVEGTLAAAQFGPVQHLAIDDENNLFITERNGSDGKGTCSVLNEESGTVTFLFKASDNLNVPTVNAQTQNVYIPLDGGYTFYELNPVNQWIAKSRLVLHPSKEQQEAGMDDFEINWKHSLAFSRYDNMIYTRSYGGDLIKVDPETRVGQKIGNFFPNTDSFIVAHPTQPEILYIAYAAKHVIYTYNIETGEHKLFAGAFGQSGWNDGIATDAEFNSPRQMSLDMEGNIYIADSGNHCIRMIDKNGIVTTPIGQPGEAGYADGSPDMALLNDPRGVAVNSEGDVYIADLGNRCIRKLTLQ” as the sequence, how does the protein production read?
Answer: failed

Question: For “MTIKQTDNINDDDLVYSNATDLPVGVKKSPKMSPTARVGLLVFGVIAAVGWGAIAFSRGETINSVWLVLAAVGSYIIAFSFYARLIEYKVVKPKDQRATPAEYVNDGKDYVPTDRRVLFGHHFAAIAGAGPLVGPVMAAQMGYLPGTLWIILGVIFAGAVQDYLVLWVSTRRRGRSLGQMVRDEMGTVGGAAGILATISIMIIIIAVLALIVVNALADSPWGVFSITMTIPIALFMGVYLRYLRPGRVTEVSIIGVALLLLAIVAGGWVADTSWGVEWFTWSKTTLALALIGYGIMAAILPVWLLLAPRDYLSTFMKIGVIGLLAVGILFARPEVQMPSVTSFALEGNGPVFSGSLFPFLFITIACGALSGFHALISSGTTPKLVEKESQMRMLGYGGMLMESFVAMMALITAVILDRHLYFSMNAPLALTGGDPATAAEWVNSIGLTGADITPEQLSEAAESVGESTVISRTGGAPTLAFGMSEILSGFIGGAGMKAFWYHFAIMFEALFILTTVDAGTRVARFMMTDTLGNVPGLRRFKDPSWTVGNWISTVFVCALWGAILLMGVTDPLGGINVLFPLFGIANQLLAAIALALVLVVVVKKGLYKWAWIPAVPLAWDLIVTMTASWQKIFHSDPAIGYWAQNANFRDAKSQGLTEFGAAKSPEAIDAVIRNTMIQGILSILFAVLVLVVVGAAIAVCIKSIRARAAGTPLETTEEPDTESEFFAPTGFLASSRDKEVQAMWDERYPGGAPVSSGGH”, which protein production is on record?
Answer: not failed

Question: With “MTIKRVGILGAGKVGIVLAGLALKAGYEVRISGSGSVDKIDLTISTLVPGAIASENAEVVANSDIIILAIPLSRYKNIDPTLLKGKLVIDAMNYWWETDGIREEVLDPTLTSSEQVQNYFKDSTIVKTFNHMGYHNLQEEALPKGDPKRKALFVTGDNHAAVDEVTKFVDSMGFDQVVHYKLTDGIMTEPGSPLFGASLKYQELKQIIDNFDHTDFGRKISSTLNLEHHHHHH” as the sequence, how does the protein production read?
Answer: not failed

Question: Which protein production does the source give for “MTIKVFSPKYPTELEEFYAERIADNPLGFIQRLDLLPSISGFVQKLREHGGEFFEMREGNKLIGICGLNPINQTEAELCKFHINSAYQSQGLGQKLYESVEKYAFIKGYTKISLHVSKSQIKACNLYQKLGFVHIKEEDCVVELGEETLIFPTLFMEKIL” here?
Answer: failed

Question: With “MTINNDPMRDAIVDTAVELAAHTSWEAVRLYDIAARLAVSLDEIRLYFREKDELIDAWFDRADSRMLKEAESAGFLDLVASERIHHLIMIWLDALAVQRKVTRQMIMSKLEFGHIHIQIPAVMRVSRTVQWVREAAQRDATFMRRALEESTLTTIYLMTFFFWMRDESENSRHTRQFLKRHLTMAAWLGQKVYGKDPEKSTVPHKQQIPLQFD” as the sequence, how does the protein production read?
Answer: not failed

Question: Which protein production does the source give for “MTIQQWLFSFKGRIGRRDFWIWIGLWFAGMLALFSLAGKNLLDIQTAAFCLVCLLWPTAAVMVKRLHDRGRSGAWALLMILAWMLLAGNWVMLPGMWQWVVGRFIPTLILVMMLIDLGAFVGVQGENKFGKATQDVKFKAEP” here?
Answer: failed

Question: With “MTITILAFIIALFFAMNIGASGAAASMGIAYGAGAVRKRQAALWISGIGVFLGAMIGGGEVVKTIGSGIIPASILNVHIVVIILGSSAISLFIANIAGIPLSTSEVTVGSIVGVGVAFQAVFTDKLLVIVMYWLIIPIAAFFLAFLIGQLLKKTEAKLRWLKQQKWARLLTALVILTGFLEAFSAGMNNVANSVGPLVGAGLLSVGSGTFLGGLFVAIGAICLGSRVIETNGKKITEFSLLQGSCVSGLGASLVIGASLFGIPVPQTQITTCSIIGIGLSEKGRAIFRKSVILKLMKVWVVSPVFSLVISYSLVKIFLDFDLYSVAVVLCVFLATLGSISLMKHARQKQSDVRRNRDHVKSIVGGRGRKREPAAWRDF” as the sequence, how does the protein production read?
Answer: failed

Question: For “MTITTERGSQQYAYTDLPRLMGLMTGDEKHGPAATSTLDALWVLYDRVLRVAPERVDEPGRDRFLLSKGHGPMAYYAVLAAKGFLPVDWLPDFGSYDSPLGHHPDRVLVPGAEIGSGSLGHGLPIAVGTALGLRAQGLGEPRVWVLTGDAELDEGSNHEAIAYAGAAGLERLHTIVIDNSSATHALTGGIAARFEAAGWATTTVDGHDHEALHAAFTAPHEGRPLAVVARVRPKDA”, which protein production is on record?
Answer: failed

Question: For “MTIVVSRKFLAILARAIEGEVATDTIFTLLGLKVVVTLASLLPASVFLSVLMVLGRMYRDNEMTVFACAGVGPLRIYRSILLFAGPVCVLGAFLSLQAMPWSERLSQELISKDEKGADVRGIKAGRFNEFSQGDVVLYAEQLNTDKTMSRVFAQSRRGDETGIVIAESGHMEINDAGDHFVVLNNGRRYQGVPGRADFVLNEFQAYGVRINPPEGSQAALKREAADSLHLWMSGRPRELAELQRRLAVPLGTFTLTLLAVPIARTSPRGGVWGNLISAFLIYIIYENLQKISQGLLATGKLSVWTSYAGIYAVMLLATSVLLARNSGWRWVRDTALGRR”, which protein production is on record?
Answer: failed

Question: For “MTKAETSIGVFYVSEYGYSDRLAQAIINGITKTGVGVDVVDLGAAVDLQELRELVGRCTGLVIGMSPAASAASIQGALSTILGSVNEKQAVGIFETGGGDDEPIDPLLSKFRNLGLTTAFPAIRIKQTPTENTYKLCEEAGTDLGQWVTRDRSIKAMKSLGLEHHHHHH”, which protein production is on record?
Answer: not failed

Question: For “MTKAMTAHDYLPLIEKIRKRISSWTGRFLSYCGRLQLIKSVLMSITNFWSSAFRLPGNCMKEIERLCSAFLWSGPDLKTHNAKIAWSKVCLPMCEGGLGLRPLKEINTVCGLKLIWRLLASQTSLWGQWVQTYLIRRNNFWAIKASSYQGSWMWRKLLTLRDVARSFHKKEIHNGRNTSFWYDHWSSMGTLVDVLGARGCIDLGITTTTNMENVFTTRRSRKHRGDLLVRIEAEIEAAKTRHQPDIEDIDLWKPSTGYKKTFSTRETWKLIRMAEPVCEWAKGVWFPKPHQNLLSLLGWVCTIVFQQGTECKSGTAKLTLLAFSAKTLWKQEITYSSTVTTPIKFGKL”, which protein production is on record?
Answer: failed

Question: With “MTKHFLPRRTRKRRPEPLVKVRIDPPKLPKIRLLPRRAPRPRRPEPLVKVRIDPPRIRLPRIRRPRLTPFRERNPVVIGAVGLTFLALLTVAAFNADSLPLIGGGETYSAAFSEAGGLKPGDEVRIAGVKVGKVKDVDLDGDHVKVTFKIKGDPGFGTETGASIRVKTILGAKYLALRPKGPGQLKPGSEIPLKRTVPAYDVVQAFSDLTTTTEKVDTDQLAKALDTISTTFQDSPAEVRASIKGLSKISRTVASRDKALGELLDHANGVTGVLAEHSEDFTALVKDGGKLFKEISKRRKAIHKLLKSSAALGIELSGLVEDNDKEIGPALKGLNRVVQMLERNQSSLDRSVKLLAPYVRVFTNALGNGRWFDSYVQNLVAAPVVPRTGGAQ” as the sequence, how does the protein production read?
Answer: failed

Question: Which protein production does the source give for “MTKHIPLQATSACAAVPPSAVLDSAHLGEIRGALGTIAADDRAPRRTLKARLQTLLAIAGPGLIVMVGDNDAGAFGTYTQAGQNYGTTLLWTLLLLIPVLYVNQEMVVRLGAVTGVGHARLIFARFGKFWGAFSVADLFLLNALTLVTEFIGISLALQYLGLSQFWGVIAAAVIITFAVSTGDFRRFERFALLLVAGSLLLIPVAVMVHPPLPQLAHDFFVPKMPAGAPLGEVMLLIIAIVGTTIAPWQLFFQQSYLIDKRITPRFIRYERWDLCVGIALVIIGAVAMIGFSAAAFAGRPEFGAYTDALGTAHGLEQAAGRLPAILFALALLDASIIGAAAVSLATAYAIGDVFAVAHSLHRKPSEAKGFYAVYAGLIAFAAALVVTPGMPLGLLTNAVQTLAGVLLPSATVFLLLLCNDKAVLGPWVNRRAGNLFTGAIVAVLVLLSVILTVSVLFPGVGETTILGILGGGVVGALLLSGAVALIARRGQGVRAEPPARSVVAPEEWRMPLLATLPPARLSAVSRTWLLVLRGYLVLAAGLVLYRIVELIAR” here?
Answer: failed

Question: Which protein production does the source give for “MTKIIPVASGKGGVGKTSFVANVGYKLSSLGKTVILVDLDLGGSNLHTCLGVKNKGVGIGSFINKKSKSFSDLVCKTSYDKLYLIPGDALYTGTANLPFSIKKKIIESIQKDLIADFIFLDLGSGTSYNTIDFYLASYSGVIVTIPETPSILNAYSFLKNALYRLLYLGFPQKSPERDYIGNFFKDKIEGTNLGFKDLVVGIELISLSSSLKVKRMMNNFYPRVVLNRIETSEEIAMCENLINVVKNNINIPIEFIGFVPFAKSFREAINNRVPFIDFEKNSKLNKYFEFIAGNLIKSPIEGSPYIYDDIYDMIKDQSRFIRKLEHHHHHH” here?
Answer: not failed

Question: Which protein production does the source give for “MTKIMIIGANGGIAKKLTQRLLAETDDELVLFLRRAERLAQYREQPRVTLIDGNVLDTDELATAMAPVDIVYSNVGGTDLAAQTKSILAAMARTQRQRLIFISALGAHHEVPGKFGAWNEQAIADFLPGFREAARLLSASELVYTEIRPAWLTDVAEIDYELTTGAEPFKGTEVSRASVADLVFKLMAHPENYQRVSLGVDEPGTAGDRPSWLLEHHHHHH” here?
Answer: failed

Question: For “MTKQDIRVALTIVALVLGLGWAIGYGIGLMTRPASVVPENPPHDALKSPARKAPRSGAVSGDTRYPDYEELYVNDYADLLDPAAEDRLRDKLIALYGHNGVEMTVLTIDTMGTYGHGGAIEPFATGLFNNWGIGDAERNDGVLVLIVRFDRKMRIEIGAGYERAWDARMQRVIDAGFLPYFRRDEYQEGIEAGVDETIRELTGAYPGAWDMGTAQRGWSWLARAVDRIGEWVLSLLLVPLGGAALWVRRYLRNRTRPCAQCRTPMLRAGEEADDEHLDGGQRLEEYLKSVDYDVWHCPDCGHIDIHRYKSWFSGYGACPQCNYRTLSTTSTVLSAATKTREGRKRVEYDCAHCGHHDSEIRTIPKISDSNSGGSGRSSFGGGSSSGGGASGSW”, which protein production is on record?
Answer: failed
